Laboratory results reported in patent US20220259593A1, “CONTROL OF MAMMALIAN GENE DOSAGE USING CRISPR” (The Regents of the University of California, priority 2019, published 2022).

Test system: K562 CRISPRi cells
Assay: Constant region variant library pooled growth screen, K562
Format: cell-based, human
Conditions: sgRNA constant region variants; activity relative to the original, un-modified constant region cr995
How it was run: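 Growth screens in K562 CRISPRi cells were harvested 4-8 days post-selection at >2000× library coverage. Each variant's phenotype was referenced to the unmodified constant region with the same targeting sequence.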

B1: cr638 (nucleic acid)
guide: GTTTAAGAGCTAAGCTGGAAACAGCATAGCAAGCTTAAATAAGGGTACTCCGTTATCAACTTGAAAAAGTGGCACCGAGTCGGTGCT
modifications: listed as DNA, chemistry not fully specified
For B1, the Mean relative activity was 0.03012.

B2: cr616 (nucleic acid)
guide: GTTTAAGAGCTAAGCTGGAAACAGCATAGCAAGTTTAAATAAGGCTAGTCCGTTATCAAGATGAAAATCTGGCACCGAGTCGGTGCT
modifications: listed as DNA, chemistry not fully specified
B2 was tested, and the Mean relative activity was 1.035.

B3: cr010 (nucleic acid)
guide: GTTAAAGAGCTAAGCTGGAAACAGCATAGCAAGTTTAAATAAGGCTAGTCCGTTATCAACTTGAAAAAGTGGCACCGAGTCGGTGCT
modifications: listed as DNA, chemistry not fully specified
Work on B3 yielded a Mean relative activity of 0.02976.

B4: cr095 (nucleic acid)
guide: GTATAAGTGCTAAGCTGGAAACAGCATAGCAAGTTTAAATAAGGCTAGTCCGTTATCAACTTGAAAAAGTGGCACCGAGTCGGTGCT
modifications: listed as DNA, chemistry not fully specified
In the case of B4, the Mean relative activity is reported as 0.02974.

B5: cr830 (nucleic acid)
guide: GTTTAAGAGCTAAGCTGGAAACAGCATAGCAAGTTTAAATAAGGCTAGGCCGTTATCAACTTGAAAAAGTGTCACCGAGTCGGTGCT
modifications: listed as DNA, chemistry not fully specified
B5 gave a Mean relative activity of 0.02925.

B6: cr378 (nucleic acid)
guide: GTTTAAGAGCTAAGCTGGAAACAGCATAGCAAGTTTAAATGAGGCTAGTCCGTTATCAACTTGAAAAAGTGGCACCGAGTCGGTGCT
modifications: listed as DNA, chemistry not fully specified
For B6, the Mean relative activity was 0.02893.

B7: cr933 (nucleic acid)
guide: GTTTAAGAGCTAAGCTGGAAACAGCATAGCAAGGTTAAATAAGGCTAGTCCGTTATCAACTTGAAAAAGTGTCACCGAGTCGGTGAT
modifications: listed as DNA, chemistry not fully specified
In the case of B7, the Mean relative activity is reported as 0.0286.

B8: cr757 (nucleic acid)
guide: GTTTAAGAGCTAAGCTGGAAACAGCATAGCAACTTTAAATAAGGCTAGTCCGTTATCAACTAGAAATAGTGGCACCGAGTCGGTGCT
modifications: listed as DNA, chemistry not fully specified
For B8, the Mean relative activity was 0.02851.

B9: cr570 (nucleic acid)
guide: GTTTAAGAGCTAAGCTGGAAACAGCATAGCAACTTTAAATAAGGCTAGTCCGTTATCAACTTGAAAAAGTGGCTCCGAGTCGGAGCT
modifications: listed as DNA, chemistry not fully specified
With B9 the Mean relative activity was 0.02846.

B10: cr009 (nucleic acid)
guide: GTGTAAGAGCTAAGCTGGAAACAGCATAGCAAGTTTAAATAAGGCTAGTCCGTTATCAACTTGAAAAAGTGGCACCGAGTCGGTGCT
modifications: listed as DNA, chemistry not fully specified
For B10, the Mean relative activity was 0.02783.

B11: cr012 (nucleic acid)
guide: GTTGAAGAGCTAAGCTGGAAACAGCATAGCAAGTTTAAATAAGGCTAGTCCGTTATCAACTTGAAAAAGTGGCACCGAGTCGGTGCT
modifications: listed as DNA, chemistry not fully specified
Work on B11 yielded a Mean relative activity of 0.02769.

B12: cr096 (nucleic acid)
guide: GTTTGTGAGCTAAGCTGGAAACAGCATAGCAAGTTTAAATAAGGCTAGTCCGTTATCAACTTGAAAAAGTGGCACCGAGTCGGTGCT
modifications: listed as DNA, chemistry not fully specified
B12 was tested, and the Mean relative activity was 0.02764.
